Where a chain is given by its changes, count along the chain named. Names may count otherwise.

The values that follow come from patent US20260062456A1 (ALPINE IMMUNE SCIENCES, published 2026).

Sequences and labels used below:
T1: human TIGIT stably expressed on Jurkat/IL-2 reporter cells (Jurkat/TIGIT cells) (human, UniProt Q495A1 22-244)
T1 sequence (looked up): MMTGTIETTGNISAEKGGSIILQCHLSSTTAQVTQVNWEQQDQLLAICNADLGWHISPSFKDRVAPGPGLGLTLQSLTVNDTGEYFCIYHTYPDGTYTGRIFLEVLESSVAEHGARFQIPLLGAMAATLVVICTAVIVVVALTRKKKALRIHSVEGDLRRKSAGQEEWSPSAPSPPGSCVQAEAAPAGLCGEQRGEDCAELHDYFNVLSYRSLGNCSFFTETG

B1: variant PD-L1 ECD-Fc E27D, N45D, T183A, I188V (Fc fusion, not shown: a dimerising Fc or GST)
chain: FTVTVPKDLYVVEYGSNMTIECKFPVDKQLDLAALIVYWEMEDKDIIQFVHGEEDLKVQHSSYRQRARLLKDQLSLGNAALQITDVKLQDAGVYRCMISYGGADYKRITVKVNAPYNKINQRILVVDPVTSEHELTCQAEGYPKAEVIWTSSDHQVLSGKTTTTNSKREEKLFNVTSTLRINATTNEVFYCTFRRLDPEENHTAELVIPELPLAHPPNER
B2: variant PD-L1 ECD-Fc N45D, V50A, L124S, K144E, L179P, R195G (Fc fusion, not shown: a dimerising Fc or GST)
chain: B1 chain with D27E, V50A, L124S, K144E, L179P, A183T, V188I, R195G
B3: variant PD-L1 ECD-Fc K28R, N45D, V129D, T163N, R195T (Fc fusion, not shown: a dimerising Fc or GST)
chain: B1 chain with D27E, K28R, V129D, T163N, A183T, V188I, R195T
B4: variant PD-L1 ECD-Fc N45D, F173I, S177C (Fc fusion, not shown: a dimerising Fc or GST)
chain: B1 chain with D27E, F173I, S177C, A183T, V188I
B5: variant PD-L1 ECD-Fc N45D, G52V, Q121L, P198S (Fc fusion, not shown: a dimerising Fc or GST)
chain: B1 chain with D27E, G52V, Q121L, A183T, V188I, P198S
B6: variant PD-L1 ECD-Fc N45D, Q89R, I98V (Fc fusion, not shown: a dimerising Fc or GST)
chain: B1 chain with D27E, Q89R, I98V, A183T, V188I
B7: variant PD-L1 ECD-Fc I98T, F173Y, L196S (Fc fusion, not shown: a dimerising Fc or GST)
chain: B1 chain with D27E, D45N, I98T, F173Y, A183T, V188I, L196S
B8: variant PD-L1 ECD-Fc N45D, I148V, R195G (Fc fusion, not shown: a dimerising Fc or GST)
chain: B1 chain with D27E, I148V, A183T, V188I, R195G
B9: variant PD-L1 ECD-Fc N45D, G102D, R194W, R195G (Fc fusion, not shown: a dimerising Fc or GST)
chain: B1 chain with D27E, G102D, A183T, V188I, R194W, R195G
B10: variant PD-L1 ECD-Fc K23N, N45D, S75P, N120S (Fc fusion, not shown: a dimerising Fc or GST)
chain: B1 chain with K23N, D27E, S75P, N120S, A183T, V188I
B11: variant PD-L1 ECD-Fc N45D, R68L, F173L, D197G, P198S (Fc fusion, not shown: a dimerising Fc or GST)
chain: B1 chain with D27E, R68L, F173L, A183T, V188I, D197G, P198S
B12: variant PD-L1 ECD-Fc N45D, S131F, P198S (Fc fusion, not shown: a dimerising Fc or GST)
chain: B1 chain with D27E, S131F, A183T, V188I, P198S
B13: variant PD-L1 ECD-Fc N45D, K111T, T183A, I188V (Fc fusion, not shown: a dimerising Fc or GST)
chain: B1 chain with D27E, K111T
B14: variant PD-L1 ECD-Fc K28E, N45D, W149R, S158G, P198T (Fc fusion, not shown: a dimerising Fc or GST)
chain: B1 chain with D27E, K28E, W149R, S158G, A183T, V188I, P198T
B15: variant PD-L1 ECD-Fc V11E, N45D, T130A, P198T (Fc fusion, not shown: a dimerising Fc or GST)
chain: B1 chain with V11E, D27E, T130A, A183T, V188I, P198T
B16: variant PD-L1 ECD-Fc N45D, S99G, C137R, V207A (Fc fusion, not shown: a dimerising Fc or GST)
chain: B1 chain with D27E, S99G, C137R, A183T, V188I, V207A
B17: variant PD-L1 ECD-Fc M41K, D43G, K44E, N45D, R195G, N201D (Fc fusion, not shown: a dimerising Fc or GST)
chain: B1 chain with D27E, M41K, D43G, K44E, A183T, V188I, R195G, N201D
B18: variant PD-L1 ECD-Fc K23N, N45D, Q73R, T163I (Fc fusion, not shown: a dimerising Fc or GST)
chain: B1 chain with K23N, D27E, Q73R, T163I, A183T, V188I
B19: variant PD-L1 ECD-Fc N45D, I148V, R195G, N201D (Fc fusion, not shown: a dimerising Fc or GST)
chain: B1 chain with D27E, I148V, A183T, V188I, R195G, N201D
B20: variant PD-L1 ECD-Fc N45D, S75P, P198S (Fc fusion, not shown: a dimerising Fc or GST)
chain: B1 chain with D27E, S75P, A183T, V188I, P198S
B21: variant PD-L1 ECD-Fc N45D, V50A, I148V, R195G, N201D (Fc fusion, not shown: a dimerising Fc or GST)
chain: B1 chain with D27E, V50A, I148V, A183T, V188I, R195G, N201D
B22: variant PD-L1 ECD-Fc N45D, V50A, I119T, K144E (Fc fusion, not shown: a dimerising Fc or GST)
chain: B1 chain with D27E, V50A, I119T, K144E, A183T, V188I
B23: variant PD-L1 ECD-Fc N45D, N113Y, R195S (Fc fusion, not shown: a dimerising Fc or GST)
chain: B1 chain with D27E, N113Y, A183T, V188I, R195S
B24: variant PD-L1 ECD-Fc N45D, V50A, R195T (Fc fusion, not shown: a dimerising Fc or GST)
chain: B1 chain with D27E, V50A, A183T, V188I, R195T
B25: variant PD-L1 ECD-Fc N45D, T163I, K167R, R195G (Fc fusion, not shown: a dimerising Fc or GST)
chain: B1 chain with D27E, T163I, K167R, A183T, V188I, R195G
B26: variant PD-L1 ECD-Fc N45D, E134G, L213P (Fc fusion, not shown: a dimerising Fc or GST)
chain: B1 chain with D27E, E134G, A183T, V188I, L213P
B27: variant PD-L1 ECD-Fc N45D, K111T, R195G (Fc fusion, not shown: a dimerising Fc or GST)
chain: B1 chain with D27E, K111T, A183T, V188I, R195G
B28: variant PD-L1 ECD-Fc M41K, D43G, N45D, R64S, R195G (Fc fusion, not shown: a dimerising Fc or GST)
chain: B1 chain with D27E, M41K, D43G, R64S, A183T, V188I, R195G
B29: variant PD-L1 ECD-Fc N45D, T183A, T192S, R194G (Fc fusion, not shown: a dimerising Fc or GST)
chain: B1 chain with D27E, V188I, T192S, R194G
B30: variant PD-L1 ECD-Fc N45D, N165Y, E170G (Fc fusion, not shown: a dimerising Fc or GST)
chain: B1 chain with D27E, N165Y, E170G, A183T, V188I
B31: variant PD-L1 ECD-Fc M41K, D43G, N45D, R64S, S99G (Fc fusion, not shown: a dimerising Fc or GST)
chain: B1 chain with D27E, M41K, D43G, R64S, S99G, A183T, V188I
B32: PD-L1/CD155 Stack 1: (CD155 IgV) (G4S)2 Fc (G4S)3 (PD-L1 IgV) (Fc fusion)
chain: WPPPGTGDVVVQAPTQVSGFLGDSVTLPCYLQVPNMEVTHVSQLTWARHGESGSMAVFHQTQGPWYAESKRLEFVAARLGAELRNASLRMFGLRVEDEGNYTCQFVTFPQRSRSVDIWLRVLGGGGSGGGGSEPKSSDKTHTCPPCPAPEAEGAPSVFLFPPKPKDTLMISRTPEVTCVVVDVSHEDPEVKFNWYVDGVEVHNAKTKPREEQYNSTYRVVSVLTVLHQDWLNGKEYKCKVSNKALPAPIEKTISKAKGQPREPQVYTLPPSRDELTKNQVSLTCLVKGFYPSDIAVEWESNGQPENNYKTTPPVLDSDGSFFLYSKLTVDKSRWQQGNVFSCSVMHEALHNHYTQKSLSLSPGKGGGGSGGGGSGGGGSFTVTVPKDLYVVEYGSNMTIECKFPVEKQLDLAALIVYWEMEGKDIIQFVHGEEDQKAQHSSYRQRARLLKDQLSLGNAALQITDVKLQDAGVYRCMISYGGGADYKRITVKVNA

In the first experiment the target is T2, human PD-1 stably expressed on Jurkat/IL-2 reporter cells (Jurkat/PD-1 cells) (human, UniProt Q15116 25-288). Briefly: flow cytometry, Jurkat/PD-1 cells. (A flow cytometer gives signals particle by particle.)
T2 sequence (Q15116 25-288): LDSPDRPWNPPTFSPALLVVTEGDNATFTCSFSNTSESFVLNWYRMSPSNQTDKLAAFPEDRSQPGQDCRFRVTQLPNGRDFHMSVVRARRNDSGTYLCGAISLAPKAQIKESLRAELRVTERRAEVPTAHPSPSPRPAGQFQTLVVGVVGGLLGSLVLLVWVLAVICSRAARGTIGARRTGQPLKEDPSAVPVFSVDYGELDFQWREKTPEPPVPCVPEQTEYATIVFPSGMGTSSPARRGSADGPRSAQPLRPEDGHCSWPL
As for B1, the “Fold Increase over WT PD-L1 ECD-Fc” value stood at 26.6 fold and the “MFI at 20 nM conc.” value was 133000 MFI.
For B2, in that order: 3.6 fold and 18200 MFI.
In the same order, the values of B3 are 27.4 fold and 137000 MFI.
For B4, in that order: 0.4 fold and 2200 MFI.
On to B5, for which the “Fold Increase over WT PD-L1 ECD-Fc” value was 0.1 fold and the “MFI at 20 nM conc.” value stood at 296 MFI.
In the same order, the values of B6 are 18.1 fold and 90500 MFI.
For B7, in that order: 0 fold and 236 MFI.
On to B8, for which the “Fold Increase over WT PD-L1 ECD-Fc” value is 21.8 fold and the “MFI at 20 nM conc.” value amounted to 109000 MFI.
For B9, in that order: 2.7 fold and 13400 MFI.
B10: the “Fold Increase over WT PD-L1 ECD-Fc” value was 26.4 fold and the “MFI at 20 nM conc.” value is 132000 MFI.
For B11, the “Fold Increase over WT PD-L1 ECD-Fc” value worked out at 11.8 fold and the “MFI at 20 nM conc.” value amounted to 59300 MFI.
For B12, in that order: 23.2 fold and 116000 MFI.
With B13, the “Fold Increase over WT PD-L1 ECD-Fc” value was 21.7 fold and the “MFI at 20 nM conc.” value turned out to be 109000 MFI.
In the same order, the values of B14 are 0.1 fold and 691 MFI.
Regarding B15, the “Fold Increase over WT PD-L1 ECD-Fc” value amounted to 27.4 fold and the “MFI at 20 nM conc.” value came out at 137000 MFI.
For B16, in that order: 0.2 fold and 834 MFI.
With B17, the “Fold Increase over WT PD-L1 ECD-Fc” value worked out at 28.9 fold and the “MFI at 20 nM conc.” value was 145000 MFI.
For B18, in that order: 27.8 fold and 139000 MFI.
For B19, the “Fold Increase over WT PD-L1 ECD-Fc” value stood at 26.1 fold and the “MFI at 20 nM conc.” value stood at 131000 MFI.
In the same order, the values of B20 are 25.9 fold and 130000 MFI.
In the same order, the values of B21 are 26.2 fold and 131000 MFI.
For B22, in that order: 6.8 fold and 34200 MFI.
In the case of B23, the “Fold Increase over WT PD-L1 ECD-Fc” value is 22.4 fold and the “MFI at 20 nM conc.” value amounted to 112000 MFI.
Consider B24, for which the “Fold Increase over WT PD-L1 ECD-Fc” value turned out to be 28.3 fold and the “MFI at 20 nM conc.” value worked out at 142000 MFI.
In the same order, the values of B25 are 26.7 fold and 134000 MFI.
As for B26, the “Fold Increase over WT PD-L1 ECD-Fc” value amounted to 0.5 fold and the “MFI at 20 nM conc.” value was found to be 2260 MFI.
For B27, in that order: 13.1 fold and 65700 MFI.
For B28, in that order: 27.4 fold and 137000 MFI.
For B29, in that order: 0.3 fold and 1350 MFI.
For B30, the “Fold Increase over WT PD-L1 ECD-Fc” value is 17.8 fold and the “MFI at 20 nM conc.” value came out at 89000 MFI.
For B31, in that order: 26.9 fold and 135000 MFI.

The next experiment addresses T2, human PD-1 stably expressed on …. Briefly: cell-based or functional assay.
With B32, the “Fold Increase Compared to non-stack variant CD155 IgV-Fc control” value was found to be 1.7 fold; the “Fold Increase Compared to non-stack variant PD-L1 IgV-Fc control” value worked out at 0.6 fold; the “Fold Increase Compared to variant PD-L1 IgV-Fc and variant CD155 IgV-Fc” value worked out at 0.8 fold; the RLU was 573 RLU.

In the next experiment the target is T1, human TIGIT stably expressed on …. Briefly: cell-based or functional assay.
Turning to B32, the “Fold Increase Compared to non-stack variant CD155 IgV-Fc control” value was 1.7 fold; the “Fold Increase Compared to non-stack variant PD-L1 IgV-Fc control” value is 0.6 fold; the “Fold Increase Compared to variant PD-L1 IgV-Fc and variant CD155 IgV-Fc” value worked out at 0.8 fold; the RLU worked out at 573 RLU.
